Results reported in US20230136252A1 (NANJING LEGEND BIOTECH, published 2023).

Tests used:
[1] = biological target: T1, recombinant human GPC6-His (human, UniProt Q9Y625 24-529, limits assumed); experiment: ELISA, plate coated with 2 ug/mL rhGPC6-his, VHH-hIgG1Fc detected with HRP goat anti-human IgG, OD450
T1 construct: Bought protein; also called RD System Cat #2845-GP; not shown: His tag
T1 sequence (looked up): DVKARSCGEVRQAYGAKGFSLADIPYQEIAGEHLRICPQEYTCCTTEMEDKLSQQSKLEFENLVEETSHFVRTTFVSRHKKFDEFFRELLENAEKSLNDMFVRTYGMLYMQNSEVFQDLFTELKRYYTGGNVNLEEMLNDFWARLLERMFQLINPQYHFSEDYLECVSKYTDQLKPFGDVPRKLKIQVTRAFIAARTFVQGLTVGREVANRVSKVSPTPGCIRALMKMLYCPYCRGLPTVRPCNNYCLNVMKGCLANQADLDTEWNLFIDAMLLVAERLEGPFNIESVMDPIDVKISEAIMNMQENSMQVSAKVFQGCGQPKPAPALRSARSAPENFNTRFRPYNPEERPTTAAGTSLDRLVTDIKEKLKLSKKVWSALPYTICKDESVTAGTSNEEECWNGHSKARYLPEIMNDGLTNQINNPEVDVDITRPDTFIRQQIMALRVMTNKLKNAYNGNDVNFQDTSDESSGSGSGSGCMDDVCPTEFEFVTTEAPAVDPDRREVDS
Procedure: (§1) To evaluate the specificity of humanized anti-GPC2 VHH5 to recombinant human GPC2 protein, an ELISA-based binding assay was conducted to determine the differential target proteins binding of anti-GPC2 VHH5. Briefly, microplates were coated with 2 μg/mL recombinant human GPC1-His (RD System, Cat #4519-GP), GPC2-His (RD System, Cat #2304-GP), GPC3-His (ACRO, Cat #GP3-H5223), GPC4-Fc (RD System, Cat #9195-GP), GPC5-His (RD System, Cat #2607-G5/CF), GPC6-His (RD System, Cat #2845-GP) or recombinant mouse GPC2-His (RD System, Cat #2355-GP) proteins. Recombinant human protein coated plates were blocked with skim milk. Serially diluted humanized VHH-hIgG1Fc recombinant antibodies were added to each well of the plates and incubated at 4° C. for 1.5 h. Samples were further labelled with HRP-conjugated goat anti human IgG (H+L) secondary antibody (Genescript, Cat #A00166-1) and signal was developed with 3,3′,5,5′-Tetramethylbenzidine (TMB) substrate according to manufacturer's instruction. For the GPC4, VHH-His recombinant antibodies and anti-His tag secondary antibody (Genescript, Cat #A00612) were added to the GPC4-Fc coated plates instead. Optic density at 450 nm was measured by plate reader.

[2] = biological target: T2, recombinant human GPC5-His (human, UniProt P78333 25-551, limits assumed); experiment: ELISA, plate coated with 2 ug/mL rhGPC5-his, VHH-hIgG1Fc detected with HRP goat anti-human IgG, OD450
T2 construct: Bought protein; also called RD System Cat #2607-G5/CF; not shown: His tag
T2 sequence (looked up): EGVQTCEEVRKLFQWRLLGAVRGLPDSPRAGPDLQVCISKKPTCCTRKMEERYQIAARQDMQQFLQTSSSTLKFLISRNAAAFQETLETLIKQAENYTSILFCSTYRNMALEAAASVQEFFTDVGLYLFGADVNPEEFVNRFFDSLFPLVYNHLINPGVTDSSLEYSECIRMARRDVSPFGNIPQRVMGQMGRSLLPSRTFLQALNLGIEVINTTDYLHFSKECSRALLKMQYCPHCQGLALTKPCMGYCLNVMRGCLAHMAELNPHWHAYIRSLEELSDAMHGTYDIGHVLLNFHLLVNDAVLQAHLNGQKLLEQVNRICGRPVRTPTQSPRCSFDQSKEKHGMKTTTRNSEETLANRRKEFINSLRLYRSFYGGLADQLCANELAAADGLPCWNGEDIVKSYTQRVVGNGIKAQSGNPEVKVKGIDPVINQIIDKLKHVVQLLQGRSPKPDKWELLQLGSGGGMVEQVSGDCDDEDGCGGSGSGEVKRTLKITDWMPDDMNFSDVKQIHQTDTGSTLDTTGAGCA
Procedure: as §1

[3] = biological target: T3, recombinant human GPC1-His (human, UniProt P35052 24-530, limits assumed); experiment: ELISA, plate coated with 2 ug/mL rhGPC1-his, VHH-hIgG1Fc detected with HRP goat anti-human IgG, OD450
T3 construct: Bought protein; also called RD System Cat #4519-GP; not shown: His tag
T3 sequence (looked up): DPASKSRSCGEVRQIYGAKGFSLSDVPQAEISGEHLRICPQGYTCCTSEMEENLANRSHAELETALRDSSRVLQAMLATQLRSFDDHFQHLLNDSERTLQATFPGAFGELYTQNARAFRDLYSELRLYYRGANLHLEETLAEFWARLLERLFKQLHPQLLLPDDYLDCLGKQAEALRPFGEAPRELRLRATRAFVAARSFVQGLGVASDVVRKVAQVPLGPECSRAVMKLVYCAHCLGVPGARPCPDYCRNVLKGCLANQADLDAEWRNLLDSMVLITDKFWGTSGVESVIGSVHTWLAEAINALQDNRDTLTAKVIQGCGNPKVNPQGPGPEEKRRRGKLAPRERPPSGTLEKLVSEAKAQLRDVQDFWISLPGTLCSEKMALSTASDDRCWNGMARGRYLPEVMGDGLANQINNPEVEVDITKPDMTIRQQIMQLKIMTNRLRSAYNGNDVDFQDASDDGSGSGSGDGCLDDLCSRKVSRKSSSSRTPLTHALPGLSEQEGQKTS
Procedure: as §1

Measured: binding result

B1: AS78117VH4-hIgG1Fc (Fc fusion)
chain: EVQLVESGGGLVQPGGSLRLSCIVSRYTYATYSMAWFRQAPGKGLEGVSGLDSVGATGYAESVKGRFTISRDNSKNTLYLQMNSLRAEDTAVYYCVVDPASAKVTYGSWSTPSYAYWGQGTLVTVSS
notes: also called anti-GPC2 VHH-hIgG1Fc; not shown: human IgG1 Fc fragment (hIgG1Fc)
no binding (tested: about 300 nM): all assays above

B2: AS79236VH6-hIgG1Fc (Fc fusion)
chain: EVQLVESGGGLVQPGGSLRLSCAVSGYTYSSYCMAWFRQAPGKGLEGVASIDAGGRTTYVDSVKGRFTISKDNAKNSLYLQMNSLRAEDTAMYYCAVDVRTRCGGTWDGEAVYFPYWGQGTLVTVSS
notes: as for B1
no binding (tested: about 300 nM): all assays above

B3: AS70950VH6-hIgG1Fc (Fc fusion)
chain: EVQLVESGGGLVQPGGSLRLSCAISEFTYKNTCVGWFRQAPGKGREGVAAIDSDGNTNYVDSVKGRFTISQDNSKNTVYLQMNSLRAEDTAMYYCAAGAYCGRLLLWIGNYAYWGQGTLVTVSS
notes: as for B1
no binding (tested: about 300 nM): all assays above
